In the supplement of paper PMC12455559:

Tests used:
[1] = purified protein yield per well (BCA); higher = higher soluble expression
How it was run: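 Candidate enzymes were expressed in E. coli C41(DE3) in 2 mL autoinduction cultures with 100 µg/mL kanamycin, at 37 °C for 2 h and then 18 °C for 40 h. Cells were lysed, and protein was bound to Ni-charged magnetic beads and released by SUMO protease cleavage on an OT-2 robot. The read-out is purified protein yield per well, measured with the Pierce Rapid Gold BCA kit. Values below 25 ug (0.1 mg/mL) are below the detection threshold.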

[2] = PET hydrolysis, aromatic products released after 48 h (umol product/mg enzyme); higher = more PET depolymerization activity
Description: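 HTP-purified, SUMO-cleaved, tagless PET hydrolase candidates (5 ug, 1.43 mg/g PET) were incubated 48 h without shaking with 3.5 mg amorphous PET film (aFilm) or crystalline PET powder (cryPow) in 0.5 mL buffer: NaCitrate pH 4.5/5.5, NaPhosphate pH 6.5/7.5, glycine pH 8.5. Incubation was at 40 or 60 C. Aromatic products (TPA, MHET, BHET) in the supernatant were quantified by UV absorbance at 260/280 nm relative to buffer blanks and expressed per mg enzyme. LCC-ICCG was the positive control on every plate.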

ADNPYQRGPDPTPASVAAVNGPFATASVSVPAGYGFGGGMIYYPTDTSQGTFGGIAISPGYTALFSAELAWMGPWLASHGFVVIGIETNSRNDFDEARGTQLLAALDYLTQQSPVRTRVDPNRLAVSGHSMGGGGALNAAIRRPSLKAAVGLAPFLPSSNLANDRVPTMVFAGQQDTVVSPSYVTNLYNSLPATTESAYLEIAGGDHGFPVGRPNQVMIRTMLPFVKIFLDNDTRYSQFLCPLMDSTGVVTYRSTCPLLPPGLPTTPPTSTSSNPTVGPTTPSTTAPTTTPAPGGACTATYRTTNSWPGGFQGEVTITAGSSAINGWTVRWTLGSGQTISQVWNGEVSITGSTVSVRNAPYNGSLPASGSTTFGFLGGGSPSSPSLTCTSP [TEP165]
Conditions	purified protein yield per well [µg]
[1]	433

PET hydrolysis, [2]
Conditions	pH 4.5	pH 5.5	pH 6.5	pH 7.5
substrate: aFilm, 40 °C	< 3	< 3	2	< 3
substrate: aFilm, 60 °C	2	< 3	1.5	< 3
substrate: cryPow, 40 °C	4.5	11	52	67
substrate: cryPow, 60 °C	12	25	46	45.5

ATTAAAPAAAVRADSPYQRGPAPTEASVTAARGPFAIAQVTVPAGSGTGFNKGTIYYPTDTGQGTFGGVAVMPGFTSPQSVIQWLGPRLASQGFLVFTLDSLSLVDFPTARSQQLLAALDYLATRSTVRTRLDPNRLAVMGHSMGGGASLWAAQNRPSLKASVPLAPWETDTTWQGVRVPTMIIGGQADTVAPPATMAIPDYTSMTSAPEKAYLELRNGGHGAPATESPTVAKYALSWLKRFVDLDTRYDQFLCPAPAPTTAISQYRDTCPNG [DP058]
Conditions	purified protein yield per well [µg]
[1]	52

PET hydrolysis, [2], substrate: cryPow
Conditions	pH 5.5	pH 6.5	pH 7.5	pH 8.5
40 °C	< 3	< 3	< 3	< 3
60 °C	< 3	< 3	< 3	< 3

CAAGGPGASPGLQPTIASLSVDGAFKVMTYTDIPDVPEFGDATVYYPADTPTPIGGVAISPGWTEAQRHINWWGPRLASHGYAVLVLDTNDARRDQPEERAEALIAAVRILRGENDRAESPLQGRVDTGKMAIMGHSMGGGGTLIAANKYPDEIQAAIPFTPWQPDGDFGQITAPTLVMAGSADRVAGVADHAWPHYQSIPETTTKVFMEVDGGNHFIADTRRGTDLGTIGRYGIAWLKLYLDGDERYRSFIYGAEAEVDREKFSRYLTSP [TEP119]
Conditions	purified protein yield per well [µg]
[1]	78.9

PET hydrolysis, [2], substrate: cryPow
Conditions	pH 4.5	pH 5.5	pH 6.5	pH 7.5
40 °C	< 3	< 3	< 3	< 3
60 °C	< 3	< 3	< 3	< 3

QAPTRESLGAQGPYQVAYYSNFPAVQEFTAGTIYFPANKAQTFGAVAISPGFAERQENMSWWGRHLASHGFAVLTLDTNELRDDPAIRAEALMAALRVLSGESEREGSPLRGKIDTNRMAIMGHSMGGGGTLLAANTHSSELKAAIPFTPWQPDGDFSDVTVPTLIIAGEIDRVAPVNDHAWPHYQSLSASNPRLYLEIRGGNHFIANTAT [TEP038]
Conditions	purified protein yield per well [µg]
[1]	52.1

[2], substrate: cryPow, 40 °C
Conditions	PET hydrolysis
pH 4.5	< 3
pH 5.5	< 3
pH 6.5	< 3
pH 7.5	< 3

DSPYERGPDPTTSSIEASSGPFDVDEDSVSSWSVSGFGGGTVYYPEDDGQTYGGVVIAPGYTESSSAMAWLGEYLASHGFVAFNIDTNTRYDQPDSRGRQIEAALDYLAEDSDVSDLVDPNRLAAMGHSMGGGGTLAAAEDRPELKAAIPLTPWHTDKTWGGVTVPTMIIGAENDTIAPNSSHSIPFYNSLSTSTERAYVELDGEGHLVTSSRNTELASNSVSWLKVFVDEDDRYEQFLCPAPSTGWGSPYSDYRDSCPYI [DP033]
Conditions	purified protein yield per well [µg]
[1]	31

[2], substrate: cryPow, 40 °C
Conditions	PET hydrolysis
pH 5.5	< 3
pH 6.5	< 3
pH 7.5	< 3
pH 8.5	< 3

QSNPYERGPAPTESSIEATRGSFSVSDKNVSSFSASGFGGGTIYYPTDTSQGTFGGVAISPGFTAGESSIAWLGPRIASQGFVVITIDTNSRYDQPNSRADQLQAALDHIVADSTVGSRIDPNRLAVMGHSMGGGGSLKAAEDNADLQAAVPLQPWHTQKNWSDVEVPTLIIGAENDSVASVTTHSKPFYTSLPDDLDKAYLELDGASHFVSNTPDTTTAKYSISWLKRFVDDDTRYEQFLCPAPDDRTISEYRDTCPHSGGGGTTPTTTPTTLPPDDDCAWWQWWC [DP057]
Conditions	purified protein yield per well [µg]
[1]	34

[2], substrate: cryPow, 40 °C
Conditions	PET hydrolysis
pH 5.5	< 3
pH 6.5	10
pH 7.5	29
pH 8.5	31

AEPATIHGPAPTEESITAPTGPFEIDRETVPRSTVEGFGGGTIYYPTDTSEGTFSAVAIAPGYTAGQETLAWLGPRLASQGFVVFTIDTITTSDRPDARAEQLAASLDYLTGSSEVQDRIDPARLGVMGHSMGGGGALQAALDDPGLKAAIPMTPWNTVKDFSGVRTPTMIIGAQNDTVAPVAQHSEPFYESLPDDPGKAYLELAGASHFAPNRDDTTIAKSSIAWLKRFLDDDTRYDRFLCPPPQDPEISDYRATCPY [DP023]
Conditions	purified protein yield per well [µg]
[1]	33

[2], substrate: cryPow, 40 °C
Conditions	PET hydrolysis
pH 5.5	< 3
pH 6.5	< 3
pH 7.5	< 3
pH 8.5	< 3

AAPAGPAALPARPLAAAPADSPYERGPAPTEASITAERGPFAIEKIDVPAGSGTGFNRGTIYAPTDTSQGTFGAIAVSPGFMSPQSVIDWYGPRLASQGFVVMTLETKSLLDAPAARGDQLLAALDYMTGKSKAKDRIDASRLAVMGHSMGGGGTLEAANKRASLQAAVPLAPWDTNYDWKNVQAPTMIMGADNDTIAPADSMAERYYGTLTAVPEKAYLELRNAGHTTFNAPNTTIAKYAIAWMKRFVDDDARYEQFLCPEPSPSTTIAQYEGTCPTG [TEP067]
Conditions	purified protein yield per well [µg]
[1]	49.7

[2], substrate: cryPow, 40 °C
Conditions	PET hydrolysis
pH 4.5	5
pH 5.5	12
pH 6.5	14
pH 7.5	< 3

GESPGAAVVAFAGHAKGPAPTEQSVRAQQGPFTTDKLVVPAQAGRGFNKGTIYYPDDTSQGTFGAVAVIPGFLEGESAISWLGPTLASHGFITLTLAPNATTDYPEPRSNQLLAAVDWLANQSPVKDRVDPNRLAVAGHSMGGGGTLIAASKNPALKAAVPLTPWNPHSNFSDVTVPTLIIGADRDFIAPTFMHASPMYNSLKAKQDQAYLKLKNADHFATNRYNATATAYTVSWLKRYVDEDTRYSQFLCPVKSGFQLTCPI [DP011]
Conditions	purified protein yield per well [µg]
[1]	26

[2], substrate: cryPow, 40 °C
Conditions	PET hydrolysis
pH 5.5	< 3
pH 6.5	< 3
pH 7.5	< 3
pH 8.5	< 3

AETTTQHGPDPTEGSITAPTGPFQTDQKTVPRSSVQGFGGGTIYYPTETSQGTFGAVTIAPGYTAGKESLAWLGPRLASQGFVVFTIDTITTSDQPDSRAKQLMASLDYLTGDSDVRDRIDTSRLAVMGHSMGGGGTLEAARDNRNLKAAIPMTPWDTTKDFSGVQTPTLIIGAQNDTIAPVAQHAKPFYGSLPDDPGKAYLELAGASHFAPNQDNTTIAKSSIAWLKRFVDDDTRYDQFLCPPPQDAEISDYQSTCPY [TEP037]
Conditions	purified protein yield per well [µg]
[1]	77

PET hydrolysis, [2], substrate: cryPow
Conditions	pH 4.5	pH 5.5	pH 6.5	pH 7.5
40 °C	< 3	5	< 3	< 3
60 °C	< 3	< 3	< 3	< 3

SNPTPTPTPTPTPTPTPGNNPFQRGPNPTLSFIEANSGPYSVRTSRVSSYTSGFGGGTIHYPTGQSGTMGAIVVIPGFVSAESSIEWWGPKLASHGFVVMTIDTNSGFDQPPSRARQINAALDYLVAQNRSSRSPVRGMIDTNRLGVVGWSMGGGGTLRVASEGRIKAAIPLAPWDTTSFRNVKAPTLIFACESDVIAPVGQHASPFYNELPSNISKAFVELNGGSHYCGNGGNSYNDVLSRFGVSWMKRFLDNDTRYSQFLCGPNHTSDRDISEYRGNCNY [ESM042]
Conditions	purified protein yield per well [µg]
[1]	73.3

PET hydrolysis, [2], substrate: cryPow
Conditions	pH 4.5	pH 5.5	pH 6.5	pH 7.5
40 °C	< 3	< 3	< 3	< 3
60 °C	< 3	< 3	< 3	< 3

MPQQAQAGPGNPYERGPAPTEASVTAERGPFAVSQKAVPESADGRFNKGTVYYPTDTSQGTFGAVAISPGFVSPEAAVGWLGPRLASQGFVVMTLETNTPLDFPDQRADQLLGALDWLTTSSDVRERIDASRLAVAGHSMGGGASLRASEKRPTLQAAVPLTPWHTDKTWEKDPVPTLVVGAENDTVAPVAEHAEPFYSSLSAAPEKAYLELEGADHLAPVAPNVTVAKYAISWLKRYVDDDTRYEQFLCPPPRPSSTISEYRDTCPGS [TEP193]
Conditions	purified protein yield per well [µg]
[1]	50.4

[2], substrate: cryPow, 40 °C
Conditions	PET hydrolysis
pH 4.5	< 3
pH 5.5	< 3
pH 6.5	< 3
pH 7.5	< 3

CATAGSTTDSAPVSAASLSVDGAYEVRTYSDFPDVPEFGAATIYYPVGVPQPIGGVAIAPGFTEEQRHISWWGPRLASHGYAVLVLDTNERRERPDARASALIAGVTLLRAEGLRQGSPLFGGIDLAKMAIMGHSMGGGGALLAANEHSDQIRAAIPFTPWEPETNLGGVSAPTLVLAGAADGIAEVDEHAWRHFSMIPESTPKVYLEIAGGDHYIADTTRGTDLATVGRYAIAWLKLYVDRDERYRDFIYGE [TEP065]
Conditions	purified protein yield per well [µg]
[1]	< 25

QTNPYARGPNPTDSLLEASRGPFSISSFTVSRPSGYGAGTVYYPTNAGGTVGAIAIVPGYTARQSSINWWGPRLASHGFVVITIDTNSTLDQPSSRSRQQMAALSQVVSLSRTSTSPIYNKVDASRLGVMGWSMGGGGSLISARDNPSIKAAAPQAPWNTSSNFSSMTVPTLIFACENDSIASTSSHASPMYNSMRLNPRQYFEINNGSHSCANSGNSNQALIGKRGVAWMKRFMDNDTRYTSFACSNPNTFSVSEFRTANCS [ESM180]
Conditions	purified protein yield per well [µg]
[1]	< 25

APPVAGPYQRGPAPTEEVLVAARGPFAVTQTRMAAGQGTGAGTVHHPTDASQGTFGAVAVMPGFMGTEKSIRLYGPLLASHGFVVLTLSSVRRADFPDQRADQLLAALDRLVAGPAKGLIDAERLAVVGHSMGGGATLRAAARRPGLKAAVPLAPWHVRRDWRSVRVPTLIFGSENDRVAPVDKHAEPFYASLTRAPEKAYVELRDGGHLSFNTANPVIAKYTVSWLKRYVDDDVRYDPFLCPGPAFPSPTIREYRGTCPS [DP060]
Conditions	purified protein yield per well [µg]
[1]	< 25
